In article PMC9163516:

T1: biotinylated avi-tagged TβRI, P36897
T1 chain: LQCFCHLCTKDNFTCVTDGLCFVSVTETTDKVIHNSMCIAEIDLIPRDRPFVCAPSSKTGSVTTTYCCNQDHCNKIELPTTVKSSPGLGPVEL

B1: TGM-D12 (domain or fragment)
chain: DDSGCMPFSDEAATYKYVAKGPKNIEIPAQIDNSGMYPDYTHVKRFCKGLHGEDTTGWFVGICLASQWYYYEGVQECDDRRCSPLPTNDTVSFEYLKATVNPGIIFNITVHPDASGKYPELTYIKRICKNFPTDSNVQGHIIGMCYNAEWQFSSTPTCPAS
modifications: not checked
B2: TGM-D2 (domain or fragment)
chain: RCSPLPTNDTVSFEYLKATVNPGIIFNITVHPDASGKYPELTYIKRICKNFPTDSNVQGHIIGMCYNAEWQFSSTPTCPAS
modifications: not checked

Molecular target: T1, biotinylated avi-tagged TβRI, P36897
Experiment: SPR; BIAcore X100; biotinylated avi-tagged TβRI or TβRII captured on neutravidin-coated CM-5 chip (results say streptavidin) at 50-150 RU; TGM constructs injected as 2-fold dilution series in 25 mM Hepes, pH 7.4, 150 mM NaCl, 0.005% P20, 100 μl/min; 1:1 kinetic fit of a single injection series

Binder | Kd [nM] | koff [s⁻¹] | kon [M⁻¹ s⁻¹]
B1 | 24 | 0.0016 | 67000
B2 | 310 | 0.091 | 300000
